Assay [1] has as its target T1, 人TIGIT (人体组织细胞膜上表达的TIGIT蛋白) (human, UniProt Q495A1 22-244).
T1 construct: whole, on cells
T1 sequence (looked up): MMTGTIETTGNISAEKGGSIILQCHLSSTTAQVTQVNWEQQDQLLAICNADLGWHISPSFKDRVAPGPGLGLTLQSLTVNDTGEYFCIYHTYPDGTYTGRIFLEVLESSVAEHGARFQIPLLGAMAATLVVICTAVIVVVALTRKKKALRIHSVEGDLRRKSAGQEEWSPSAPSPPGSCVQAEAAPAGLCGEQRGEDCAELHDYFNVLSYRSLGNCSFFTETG
In words: immunohistochemistry on FFPE human tissue, primary antibody 3.5 μg/mL.

For assay [2], the target named is T2, TF-TIGIT融合蛋白 (原核表达) (human (TIGIT part)).
T2 construct: also called TF-TIGIT蛋白; 原核表达的TF-TIGIT蛋白
T2 chain: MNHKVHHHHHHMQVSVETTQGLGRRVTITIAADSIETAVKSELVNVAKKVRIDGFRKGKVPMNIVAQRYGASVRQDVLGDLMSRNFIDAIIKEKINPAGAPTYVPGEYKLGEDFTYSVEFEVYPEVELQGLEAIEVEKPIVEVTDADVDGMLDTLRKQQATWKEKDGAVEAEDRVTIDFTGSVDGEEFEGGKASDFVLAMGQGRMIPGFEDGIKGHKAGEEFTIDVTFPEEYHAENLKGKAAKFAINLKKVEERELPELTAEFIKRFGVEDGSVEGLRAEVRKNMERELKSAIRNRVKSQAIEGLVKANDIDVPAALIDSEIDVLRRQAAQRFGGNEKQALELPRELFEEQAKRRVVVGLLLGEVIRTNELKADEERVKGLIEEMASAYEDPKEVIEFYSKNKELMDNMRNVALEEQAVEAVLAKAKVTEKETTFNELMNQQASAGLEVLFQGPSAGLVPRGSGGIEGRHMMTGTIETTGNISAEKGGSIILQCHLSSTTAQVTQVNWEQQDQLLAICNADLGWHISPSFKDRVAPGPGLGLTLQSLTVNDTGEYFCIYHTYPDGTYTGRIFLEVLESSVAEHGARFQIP
In words: Western blot, 0.2 μg antigen per lane, primary antibody 0.2 µg/mL. A general note: Immunoblotting shows a protein as a band on a membrane.

B1: 抗TIGIT单克隆抗体MJ12-30 (antibody, mouse IgG1, kappa, V domains shown)
VH: EVKLEQSGGVLVQPGGSRKLSCAASGFTFHSFGMHWVRQAPEKGLEWVAYISSGGSTIFYADTVKGRFTISRDNPKNTLFLQMTSLRSEDTAMYYCAGSDHGNLGYWGQGTTLTVSS
VL: DIVLTQSPLSLSVSLGDQASISCRSSQSILHSGGNTYLDWFLQRPGQSPKLLIYKVSNRISGVPDRFSGSGAGTDFTLKISRVEAEDLGVYYCFQGNHVPPTFGGGTKLEIKR
notes: full chains used here; also called 鼠抗人TIGIT单克隆抗体杂交瘤细胞系MJ12-30 (CGMCC No.45102) 分泌的抗体
Consider B1, for which the binding result in assay [1] and in assay [2] was “binds” throughout.

Source of the values: patent publication CN114480298A (MEGEE TRANSF MEDICAL RESEARCH SUZHOU CO LTD, dated 2022).
